# Several values for one entry are separate records, joined by “and”; a condition that tells them apart may be missing. Equal values may be shown once.
# Target: Snf1 (wild type) (S. cerevisiae (endogenous in yeast)) (UniProt P06782)
# Assay: pull-down
# UniProt P06782, sequence (P06782 whole entry): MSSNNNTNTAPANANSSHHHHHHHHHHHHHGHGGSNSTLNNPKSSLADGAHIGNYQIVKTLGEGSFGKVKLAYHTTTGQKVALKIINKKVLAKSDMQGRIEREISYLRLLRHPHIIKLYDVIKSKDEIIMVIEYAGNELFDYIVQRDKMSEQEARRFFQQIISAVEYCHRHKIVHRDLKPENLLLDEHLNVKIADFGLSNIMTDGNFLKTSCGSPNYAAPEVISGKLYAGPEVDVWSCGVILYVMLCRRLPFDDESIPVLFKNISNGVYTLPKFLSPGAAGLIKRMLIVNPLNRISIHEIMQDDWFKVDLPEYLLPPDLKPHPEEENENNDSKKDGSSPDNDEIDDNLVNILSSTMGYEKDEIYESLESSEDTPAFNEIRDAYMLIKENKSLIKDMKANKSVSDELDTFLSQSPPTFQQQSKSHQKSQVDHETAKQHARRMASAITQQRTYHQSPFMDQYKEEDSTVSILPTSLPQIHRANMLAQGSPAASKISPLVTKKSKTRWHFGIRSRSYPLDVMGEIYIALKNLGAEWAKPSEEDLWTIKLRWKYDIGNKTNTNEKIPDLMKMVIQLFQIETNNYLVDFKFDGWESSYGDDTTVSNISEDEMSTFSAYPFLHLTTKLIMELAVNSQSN
substance,measurement,value
"Bmh (Bmh1 and Bmh2, collectively) (from UniProt P29311 1-267) (natural protein)",percent of Snf1 bound to Bmh,30% and 50%

# Reference: article PMC4937304
